Results on 48 substances are retold here after patent US12281147.

In test [1] the target is human IL-21R (human) (UniProt Q9HBE5). The test is described as follows: AlphaSeq yeast mating assay, pH 6 media.
Test [2] has the same target. Put plainly: AlphaSeq yeast mating assay, unbuffered media.
Test [3] has the same target. The test is described as follows: AlphaSeq yeast mating assay, pH 5 media.
Test [4] shares this target. The test is described as follows: AlphaSeq yeast mating assay, pH 7 media.

pKd: −log10 of the molar value.

With “IL-21_A75N (from UniProt Q9HBE4 32-152) (ligand)”, the pKd (in general, the Kd on a negative log10 scale, so that one unit is a factor of ten) was 4.55 in test [1] and 3.11 in test [2].
On the same counts, the results for “IL-21_D44P (from UniProt Q9HBE4 32-152) (ligand)” are 5.14 and 3.23.
For “IL-21_D47P (from UniProt Q9HBE4 32-152) (ligand)”, in that order: 4.57 and 3.28.
For “IL-21_D47S (from UniProt Q9HBE4 32-152) (ligand)”, the pKd in test [1] was 5.34; in test [2] it was 3.48.
Consider “IL-21_D66R (from UniProt Q9HBE4 32-152) (ligand)”, for which the pKd in test [3] is 7.60; in test [2] it was 5.57.
“IL-21_E93T (from UniProt Q9HBE4 32-152) (ligand)”: the values for the pKd in test [3] and in test [2] were 7.34 and 5.62, respectively.
As to “IL-21_F76E (from UniProt Q9HBE4 32-152) (ligand)”, the results for the pKd in test [1], in test [3] and in test [2] were 5.16, 4.00 and 3.57, respectively.
For the substance “IL-21_F76T (from UniProt Q9HBE4 32-152) (ligand)”, the values for the pKd in test [3] and in test [2] were 4.12 and 3.47, respectively.
As to “IL-21_F79D (from UniProt Q9HBE4 32-152) (ligand)”, the results for the pKd in test [1], in test [3] and in test [2] were 5.57, 4.28 and 3.77, respectively.
As to “IL-21_I37E (from UniProt Q9HBE4 32-152) (ligand)”, the negative-log Kd (pKd) was 6.26 in test [1], 5.82 in test [3] and 3.96 in test [2].
Turning to “IL-21_I37G (from UniProt Q9HBE4 32-152) (ligand)”, the figures for the pKd in test [3] and in test [2] were 4.09 and 3.77, respectively.
For the substance “IL-21_I43L (from UniProt Q9HBE4 32-152) (ligand)”, the pKd was 7.70 in test [1], 7.24 in test [3] and 5.82 in test [2].
For “IL-21_I95H (from UniProt Q9HBE4 32-152) (ligand)”, the pKd in test [1] was 5.70; in test [3], 4.28; in test [2], 3.82.
Turning to “IL-21_I95K (from UniProt Q9HBE4 32-152) (ligand)”, the pKd was 6.62 in test [4] and 3.59 in test [2].
Turning to “IL-21_I96A (from UniProt Q9HBE4 32-152) (ligand)”, the results for the pKd in test [1] and in test [2] were 4.96 and 3.80, respectively.
In the case of “IL-21_I148S (from UniProt Q9HBE4 32-152) (ligand)”, the pKd in test [2] was 3.77.
As for “IL-21_K106N (from UniProt Q9HBE4 32-152) (ligand)”, the pKd was 6.26 in test [1], 5.00 in test [3] and 6.00 in test [2].
In the case of “IL-21_L42K (from UniProt Q9HBE4 32-152) (ligand)”, the pKd in test [4] was 4.92; in test [2], 3.60.
Regarding “IL-21_L49E (from UniProt Q9HBE4 32-152) (ligand)”, the results for the pKd in test [3] and in test [2] were 3.22 and 3.27, respectively.
The substance “IL-21_L49R (from UniProt Q9HBE4 32-152) (ligand)” had a pKd in test [2] of 3.80.
Take “IL-21_L56E (from UniProt Q9HBE4 32-152) (ligand)”: the pKd was 4.52 in test [1] and 3.96 in test [2].
As for “IL-21_L56T (from UniProt Q9HBE4 32-152) (ligand)”, the values for the pKd in test [1] and in test [2] were 5.16 and 4.00, respectively.
Take “IL-21_L103E (from UniProt Q9HBE4 32-152) (ligand)”: the pKd in test [1] is 4.04; in test [3], 3.62; in test [2] it was 3.23.
For the substance “IL-21_L120V (from UniProt Q9HBE4 32-152) (ligand)”, the pKd in test [1] was 6.68; in test [4], 6.68; in test [3], 5.92.
For “IL-21_M39D (from UniProt Q9HBE4 32-152) (ligand)”, the pKd in test [1] was 4.12; in test [2], 3.10.
For the substance “IL-21_M39E (from UniProt Q9HBE4 32-152) (ligand)”, the pKd was 3.82 in test [3] and 3.48 in test [2].
With “IL-21_M39I (from UniProt Q9HBE4 32-152) (ligand)”, the pKd in test [4] was 7.46; in test [2], 5.60.
Regarding “IL-21_M39K (from UniProt Q9HBE4 32-152) (ligand)”, the pKd in test [2] was 3.05.
In the case of “IL-21_M39P (from UniProt Q9HBE4 32-152) (ligand)”, in test [2], the pKd was 3.59.
Turning to “IL-21_M39R (from UniProt Q9HBE4 32-152) (ligand)”, the pKd is 3.77 in test [1] and 3.47 in test [2].
In the case of “IL-21_N51V (from UniProt Q9HBE4 32-152) (ligand)”, the pKd is 7.21 in test [1] and 5.60 in test [2].
On to “IL-21_P108D (from UniProt Q9HBE4 32-152) (ligand)”, for which the results for the pKd in test [4] and in test [2] were 6.62 and 5.85, respectively.
As for “IL-21_P108E (from UniProt Q9HBE4 32-152) (ligand)”, the pKd in test [4] is 6.26; in test [2] it was 5.55.
For “IL-21_Q80D (from UniProt Q9HBE4 32-152) (ligand)”, the results for the pKd in test [3] and in test [2] were 3.24 and 3.18, respectively.
“IL-21_R34F (from UniProt Q9HBE4 32-152) (ligand)”: the pKd in test [1] was 7.28; in test [4], 6.96; in test [3], 6.41.
For the substance “IL-21_R34P (from UniProt Q9HBE4 32-152) (ligand)”, the pKd is 5.85 in test [3] and 5.57 in test [2].
Regarding “IL-21_R34V (from UniProt Q9HBE4 32-152) (ligand)”, the results for the pKd in test [1], in test [4] and in test [3] were 7.57, 6.96 and 6.85, respectively.
Turning to “IL-21_R38E (from UniProt Q9HBE4 32-152) (ligand)”, the pKd in test [1] is 5.08; in test [2] it was 3.96.
On to “IL-21_R38K (from UniProt Q9HBE4 32-152) (ligand)”, for which the pKd in test [4] is 5.15; in test [2] it was 3.60.
Regarding “IL-21_R38Q (from UniProt Q9HBE4 32-152) (ligand)”, the negative-log Kd (pKd) in test [1] is 4.92; in test [2], 3.57.
The substance “IL-21_R105K (from UniProt Q9HBE4 32-152) (ligand)” showed a pKd in test [2] of 3.60.
With “IL-21_S74H (from UniProt Q9HBE4 32-152) (ligand)”, the pKd in test [1] is 7.59; in test [3], 6.77; in test [2], 4.07.
Regarding “IL-21_S142I (from UniProt Q9HBE4 32-152) (ligand)”, the pKd in test [4] was 7.39; in test [2], 5.59.
“IL-21_V46D (from UniProt Q9HBE4 32-152) (ligand)”: the pKd is 4.92 in test [1] and 3.57 in test [2].
For the substance “IL-21_V46T (from UniProt Q9HBE4 32-152) (ligand)”, the results for the pKd in test [4] and in test [2] were 7.28 and 3.19, respectively.
For “IL-21_V53A (from UniProt Q9HBE4 32-152) (ligand)”, the pKd in test [4] is 7.25; in test [2], 5.96.
Turning to “IL-21_V53P (from UniProt Q9HBE4 32-152) (ligand)”, the pKd is 4.57 in test [1], 3.57 in test [3] and 3.57 in test [2].
As to “IL-21_Y52K (from UniProt Q9HBE4 32-152) (ligand)”, the results for the pKd in test [1] and in test [2] were 5.55 and 3.47, respectively.
